Assay results as given in US20200347138A1 (INDIAN INSTITUTE OF SCIENCE, published 2020).

Key:
[1] = biological target: T1, human DEC205 (human, UniProt O60449 28-1722); assay: flow cytometry on CHO/hDEC205 cells, hCG a/s and anti-rabbit IgG-FITC
T1 construct: also called hDEC205; CHO/hDEC205
Procedure: The ability of ScFv to load antigen onto the human DEC205 was checked by flow cytometry.
The complex was incubated with CHO/hDEC205 cells for one hour at 4□ followed by incubation with hCG a/s and subsequently with anti-Rabbit IgG FITC and binding was analyzed by flow cytometry.

[2] = biological target: T2, MAb B52/28; assay: RIA: unlabelled hormone displaces 125I-hCG from MAb 52/28 [left panel (A]
T2 construct: hCG heterodimer specific monoclonal antibody used in the RIA
Procedure: The antigen-antibody complexes formed were precipitated by adding an appropriate dilution of the normal mouse/rabbit serum, and goat anti-mouse/rabbit IgG followed by addition of 2.5% PEG. The tubes were centrifuged at 4,000 g for 20 minutes at 4 □, the supernatant was discarded and the radioactivity in the pellet was counted in Perkin Elmer γ-counter. The non-specific binding was determined by carrying out binding experiments in the absence of the primary antibodies.
The biotin tagged hormonal antigens were analyzed by RIA using hormone specific antibodies (52/28 for hCG and FSH a/s for hFSH) for their ability to retain their immunodominant epitopes. […] The NIH iodination grade hCG and hFSH were used as the standard reference preparations in the RIA and were used for comparing the bioactivity of these hormonal antigens.

T1 sequence (O60449 28-1722 K1321N/Y1391H limits assumed): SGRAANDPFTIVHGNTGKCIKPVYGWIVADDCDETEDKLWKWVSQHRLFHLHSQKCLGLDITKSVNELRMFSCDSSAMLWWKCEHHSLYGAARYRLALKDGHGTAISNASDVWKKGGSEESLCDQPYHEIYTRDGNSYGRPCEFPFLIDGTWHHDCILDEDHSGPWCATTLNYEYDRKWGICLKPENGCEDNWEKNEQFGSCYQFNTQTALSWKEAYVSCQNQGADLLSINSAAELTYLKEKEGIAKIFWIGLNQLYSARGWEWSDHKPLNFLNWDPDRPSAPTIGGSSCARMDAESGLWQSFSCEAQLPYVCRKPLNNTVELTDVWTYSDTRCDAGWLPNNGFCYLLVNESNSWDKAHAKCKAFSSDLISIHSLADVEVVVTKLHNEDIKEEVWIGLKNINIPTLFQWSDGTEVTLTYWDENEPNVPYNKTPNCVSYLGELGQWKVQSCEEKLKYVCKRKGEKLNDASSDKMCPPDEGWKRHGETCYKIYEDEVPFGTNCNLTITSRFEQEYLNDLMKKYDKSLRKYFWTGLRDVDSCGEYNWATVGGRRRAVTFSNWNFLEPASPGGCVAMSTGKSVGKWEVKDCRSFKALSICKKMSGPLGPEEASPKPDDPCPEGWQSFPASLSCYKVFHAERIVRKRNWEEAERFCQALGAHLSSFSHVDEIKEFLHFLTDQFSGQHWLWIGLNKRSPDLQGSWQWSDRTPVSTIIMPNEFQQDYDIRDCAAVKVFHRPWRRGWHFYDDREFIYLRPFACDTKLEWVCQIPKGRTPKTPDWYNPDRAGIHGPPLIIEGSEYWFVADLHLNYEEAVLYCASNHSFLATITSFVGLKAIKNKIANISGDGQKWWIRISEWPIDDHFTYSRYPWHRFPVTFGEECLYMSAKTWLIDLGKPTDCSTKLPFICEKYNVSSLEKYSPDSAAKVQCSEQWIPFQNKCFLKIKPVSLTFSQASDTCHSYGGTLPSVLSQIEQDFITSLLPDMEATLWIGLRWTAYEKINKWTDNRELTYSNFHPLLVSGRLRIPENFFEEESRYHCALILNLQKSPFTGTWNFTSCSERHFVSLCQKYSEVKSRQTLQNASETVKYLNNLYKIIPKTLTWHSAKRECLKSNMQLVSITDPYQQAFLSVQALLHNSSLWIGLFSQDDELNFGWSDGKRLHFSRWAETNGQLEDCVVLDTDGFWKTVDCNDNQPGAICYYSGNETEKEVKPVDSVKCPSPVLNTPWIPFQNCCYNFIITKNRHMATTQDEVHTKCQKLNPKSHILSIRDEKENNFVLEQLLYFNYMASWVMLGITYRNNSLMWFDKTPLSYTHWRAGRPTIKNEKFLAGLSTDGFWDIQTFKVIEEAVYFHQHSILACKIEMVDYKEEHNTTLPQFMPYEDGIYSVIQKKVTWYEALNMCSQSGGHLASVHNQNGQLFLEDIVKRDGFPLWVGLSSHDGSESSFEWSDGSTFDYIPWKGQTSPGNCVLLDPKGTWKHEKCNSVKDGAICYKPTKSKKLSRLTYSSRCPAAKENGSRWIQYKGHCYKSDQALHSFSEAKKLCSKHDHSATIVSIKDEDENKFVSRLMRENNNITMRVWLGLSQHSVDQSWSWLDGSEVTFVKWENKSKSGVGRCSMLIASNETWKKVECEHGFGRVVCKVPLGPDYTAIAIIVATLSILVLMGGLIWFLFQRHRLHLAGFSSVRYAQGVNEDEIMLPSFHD

binding result [1]: no binding | IC50 (read off the curve) [2]: ~6 ng/tube
B1: biotin tagged recombinant human chorionic gonadotropin (ligand)
chain 1: not shown
chain 2: SKEPLRPRCRPINATLAVEKEGCPVCITVNTTICAGYCPTMTRVLQGVLPALPQVVCNYRDVRFESIRLPGCPRGVNPVVSYAVALSCQCALCRRSTTDCGGPKDHPLTCDDPRFQDSSSSKAPPPSLPSPSRLPGPSDTPILPQ
modifications: biotin by Sulfo-NHS-LC Biotin on the hormone, sites not stated
notes: also called biotin-hCG
